Experimental data reported in patent publication US20210309732A1 (ELIXIRON IMMUNOTHERAPEUTICS HONG KONG, published 2021).

T1: mouse GM-CSF (mouse, UniProt P01587 18-141)
T1 sequence (looked up): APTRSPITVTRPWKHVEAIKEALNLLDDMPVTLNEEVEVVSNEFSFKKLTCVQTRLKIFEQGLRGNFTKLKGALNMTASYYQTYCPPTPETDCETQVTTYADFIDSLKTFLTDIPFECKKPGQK


How the values were obtained:
[1] = target: recombinant human IL-3 (human) (UniProt P08700); test: cell-based or functional assay
recombinant human GM-CSF [2] = target: T2, recombinant human GM-CSF (human, UniProt P04141 18-144); test: Biacore
T2 construct: also called rhGM-CSF; CSF2

recombinant human GM-CSF [3] = target: T2, recombinant human GM-CSF; test: Gator, Coating Ab
recombinant human GM-CSF [4] = target: T2, recombinant human GM-CSF; test: ELISA, human GM-CSF coated on the plate, anti-human kappa light chain-HRP, OD 450 nm
Protocol: (§1) Human and mouse GM-CSF have about 56% homology and are species specific. Rhesus and GM-CSF has 96.5% homologous to human GM-CSF (Hutchinson et al, J Med Virol 2001, 65:561-565, Genbank accession number AY007376). […] ELISA was performed as followed. Briefly, GM-CSF proteins were coated on the ELISA absorbing plates, then blocked by 1% BSA in PBS. […] After incubation, the plates were washed three times with TBST and incubated with anti-human kappa light chain conjugated HRP secondary antibodies. Plates were washed three times, TMB peroxidase substrate was added and reactions were stopped by adding 1 N sulfuric acid.

rhesus GM-CSF [5] = target: T3, rhesus GM-CSF (rhesus, UniProt Q9GL44 18-144); test: ELISA, rhesus GM-CSF coated on the plate, anti-human kappa light chain-HRP, OD 450 nm
Protocol: as §1

recombinant human GM-CSF [6] = target: T2, recombinant human GM-CSF; test: ELISA on coated rhGM-CSF, UBA relative to 1D2
Method in brief: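 Antibody clones carrying SDR point mutants in VH or VL, each paired with the wild-type chain, were expressed in HEK293 cells. Culture media diluted 1:12000 were bound to plates coated with rhGM-CSF at 1 μg/mL for 1 h at room temperature. Detection used HRP anti-human antibody and Amplex Red fluorescence (Ex530/Em590), with UBA = fluorescence signal/dilution factor.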

recombinant human GM-CSF [7] = target: T2, recombinant human GM-CSF; test: cell-based or functional assay
recombinant human GM-CSF [8] = target: T2, recombinant human GM-CSF; test: Biacore; remark: listed apart in the source
recombinant human GM-CSF [9] = target: T2, recombinant human GM-CSF; test: Gator (pro), Coating Ag
mouse GM-CSF = target: T1, mouse GM-CSF; test: ELISA, GM-CSF coated on the plate, anti-human kappa light chain-HRP, OD 450 nm
Protocol: as §1

recombinant human GM-CSF [10] = target: T2, recombinant human GM-CSF; test: as above
Protocol: as §1

rhesus GM-CSF [11] = target: T3, rhesus GM-CSF; test: as above
Protocol: as §1

recombinant human GM-CSF [12] = target: T2, recombinant human GM-CSF; test: SPR Biacore 3000, antibody captured by goat anti-human IgG, rhGM-CSF injected
Protocol: The kinetic binding analysis of anti-GM-CSF antibodies to recombinant human GM-CSF (rhGM-CSF) was determined by Surface plasmon resonance (SPR) using the Biacore 3000 instrument (GE Healthcare). Goat anti-human IgG (5 μg/mL) (SouthernBiotech) was stabilized in […] acetate buffer, pH 4.5, and immobilized on an EDC/NHS pre-activated carboxymethylated dextran 5 (CMS) sensor chip (GE Healthcare) through amine coupling kit (GE Healthcare). HBS-EP buffer (HBS; 10 […], 0.005% surfactant Tween-20, pH 7.4) (GE Healthcare) was used as running buffer. […] CMS sensor chip coated only with goat anti-human IgG was used as reference chip. rhGM-CSF (Biolegend) was injected over the mAb-coated CMS sensor chip and reference chip at different concentrations. The flow rate was 30 μl/min. […] Injection time and dissociation time were 180 and 600 seconds. Data were fitted to a 1:1 model using the Biacore 3000 evaluation software.

recombinant human GM-CSF [13] = target: T2, recombinant human GM-CSF; test: Gator, Coating Ag
recombinant human GM-CSF [14] = target: T2, recombinant human GM-CSF; test: cell-based or functional assay; remark: listed apart in the source
recombinant human GM-CSF [15] = target: T2, recombinant human GM-CSF; test: Biacore; remark: listed apart in the source
[16] = target: recombinant human GM-CSF (human) (UniProt P04141); test: cell-based or functional assay
rhesus GM-CSF (rhesus) = rhesus GM-CSF (rhesus) (UniProt Q9GL44); test: ELISA, GM-CSF coated on the plate, anti-human kappa light chain-HRP, OD 450 nm
[17] = target: recombinant human GM-CSF (human) (UniProt P04141); test: as above
[18] = target: recombinant human GM-CSF (human) (UniProt P04141); test: SPR Biacore 3000, antibody captured by goat anti-human IgG, rhGM-CSF injected

T3 sequence (Q9GL44 entry or part of it limits assumed): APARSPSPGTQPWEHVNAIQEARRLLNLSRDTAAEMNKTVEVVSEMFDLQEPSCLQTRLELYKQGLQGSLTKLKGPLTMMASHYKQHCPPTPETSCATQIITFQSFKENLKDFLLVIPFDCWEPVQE
T2 sequence (P04141 18-144 limits assumed): as the sequence (Q9GL44 entry or part of it limits assumed) above, with G9S, K38E, V43I, S53T, Q67R, Q104E counted along it
Chain of recombinant human GM-CSF (human) (P04141 18-144 limits assumed): as the sequence (Q9GL44 entry or part of it limits assumed) above, with G9S, K38E, V43I, S53T, Q67R, Q104E counted along it
Chain of recombinant human IL-3 (human) (P08700 20-152 limits assumed): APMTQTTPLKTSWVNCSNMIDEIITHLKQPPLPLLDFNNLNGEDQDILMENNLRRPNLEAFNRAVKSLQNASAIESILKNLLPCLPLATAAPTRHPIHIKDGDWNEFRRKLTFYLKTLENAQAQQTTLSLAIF
Chain of rhesus GM-CSF (rhesus) (Q9GL44 entry or part of it limits assumed): as the sequence (Q9GL44 entry or part of it limits assumed) above

Row | Ka (recombinant human GM-CSF [2]) | Kd (recombinant human GM-CSF [2]) | koff (recombinant human GM-CSF [2]) | kon (recombinant human GM-CSF [2]) | Kd (recombinant human GM-CSF [3]) | EC50 (read off the curve) (recombinant human GM-CSF [4]) | EC50 (read off the curve) (rhesus GM-CSF [5]) | IC50, inhibition of GM-CSF induced TF-1 cell proliferation (recombinant human GM-CSF [7]) | IC50, inhibition of rhGM-CSF induced IL-8 secretion in U937 cells (recombinant human GM-CSF [7]) | Kd (recombinant human GM-CSF [8]) | koff (recombinant human GM-CSF [8]) | kon (recombinant human GM-CSF [8]) | Kd (recombinant human GM-CSF [9]) | Kd (recombinant human GM-CSF [13]) | IC50 (M), inhibition of GM-CSF induced TF-1 cell proliferation (FIG. 5B) (recombinant human GM-CSF [14]) | Kd (recombinant human GM-CSF [15]) | Molecule | other results
1 |  |  |  |  |  |  |  |  |  |  |  |  |  |  |  |  | MOR103 (otilimab) (antibody) | Mean Fluorescence Intensity of phospho-STAT5 (pY694) in human PBMCs stimulated with 10 ng/mL rhIL-3, 2 ug/mL antibody (no antibody: 102) [1]: 106 MFI
2 | 1.01e+10 M⁻¹ | 0.099 nM | 0.000173 s⁻¹ | 1.75e+06 M⁻¹ s⁻¹ | 0.177 nM | ~400 pM | ~500 pM | 63.1 pM | 59.4 pM | 0.099 nM | 0.000173 s⁻¹ | 1.75e+06 M⁻¹ s⁻¹ | 1.57 pM | 0.0176 nM | 2.28e-10 M | 0.162 nM | antibody 1D2 (antibody, V domains shown, also called 1D2-WT; WT) VH: QVQLVQSGAEVKKPGASVKVSCEASGYTFTDKYLHWVRQAPGQGLEWMAWINPKSGGTFYAQNFKGRVTVTRDTSINTAYLELTSLRLDDTSTYYCARGRDYYDQGAADLWGQGTMVTVSS VL: DIQLTQSPSSLSASVGDRVTITCRASQGINSVLAWYQQKPGKAPKLLLYAASKLESGVPSRFSGSGSGTDYTLTISSLQPEDFGTYYCQQYYSPVRTFGQGTKVEIKR | binding affinity % of 1D2 (recombinant human GM-CSF [6]): 100%; IC50, inhibition of rhGM-CSF induced CCL17 secretion from PBMCs (recombinant human GM-CSF [7]): 71.4 pM; IC50, inhibition of rhGM-CSF induced CCL17 secretion in human PBMCs (recombinant human GM-CSF [7]): 159 pM; binding result (mouse GM-CSF): no binding (tested: about 4e-8 M); EC50 (read off the curve) (recombinant human GM-CSF [10]): ~80 pM; EC50 (read off the curve) (rhesus GM-CSF [11]): ~60 pM; Kd (recombinant human GM-CSF [12]): 0.0643 nM; koff (recombinant human GM-CSF [12]): 7.48e-05 s⁻¹; kon (recombinant human GM-CSF [12]): ~1.16e+06 M⁻¹ s⁻¹; IC50 (M), inhibition of GM-CSF induced TF-1 cell proliferation (FIG. 5A) (recombinant human GM-CSF [14]): 1.71e-10 M
3 |  |  |  |  |  | ~500 pM | ~600 pM | 123 pM | 54 pM | 0.114 nM | 0.000198 s⁻¹ | 1.74e+06 M⁻¹ s⁻¹ |  |  |  |  | 1D2-D90E (DE) (antibody, IgG1, V domains shown, also called ID2-D90E (DE); DE mutant) VH: QVQLVQSGAEVKKPGASVKVSCEASGYTFTDKYLHWVRQAPGQGLEWMAWINPKSGGTFYAQNFKGRVTVTRDTSINTAYLELTSLRLDETSTYYCARGRDYYDQGAADLWGQGTMVTVSS VL: DIQLTQSPSSLSASVGDRVTITCRASQGINSVLAWYQQKPGKAPKLLLYAASKLESGVPSRFSGSGSGTDYTLTISSLQPEDFGTYYCQQYYSPVRTFGQGTKVEIKR | 
4 | 4.14e+08 M⁻¹ | 2.42 nM | 0.00241 s⁻¹ | 998000 M⁻¹ s⁻¹ | 4.14 nM |  |  |  |  |  |  |  | 2.8 pM | 0.0309 nM | ~8.19e-09 M | 7.76 nM | 1D2 SDR mutant Y103R/V32R (antibody, IgG1, V domains shown) VH: QVQLVQSGAEVKKPGASVKVSCEASGYTFTDKYLHWVRQAPGQGLEWMAWINPKSGGTFYAQNFKGRVTVTRDTSINTAYLELTSLRLDDTSTYYCARGRDYRDQGAADLWGQGTMVTVSS VL: DIQLTQSPSSLSASVGDRVTITCRASQGINSRLAWYQQKPGKAPKLLLYAASKLESGVPSRFSGSGSGTDYTLTISSLQPEDFGTYYCQQYYSPVRTFGQGTKVEIKR | 
5 | 2.37e+08 M⁻¹ | 4.22 nM | 0.0027 s⁻¹ | 640000 M⁻¹ s⁻¹ | 1.44 nM |  |  |  |  |  |  |  | 5.84 pM | 0.0201 nM | ~6.83e-09 M | 3.36 nM | 1D2 SDR mutant Y103N/V32R (antibody, IgG1, V domains shown) VH: QVQLVQSGAEVKKPGASVKVSCEASGYTFTDKYLHWVRQAPGQGLEWMAWINPKSGGTFYAQNFKGRVTVTRDTSINTAYLELTSLRLDDTSTYYCARGRDYNDQGAADLWGQGTMVTVSS VL: DIQLTQSPSSLSASVGDRVTITCRASQGINSRLAWYQQKPGKAPKLLLYAASKLESGVPSRFSGSGSGTDYTLTISSLQPEDFGTYYCQQYYSPVRTFGQGTKVEIKR | 
6 |  |  |  |  |  | ~500 pM | ~600 pM | 97.1 pM | 51 pM | 0.0732 nM | 0.000188 s⁻¹ | 2.58e+06 M⁻¹ s⁻¹ |  |  |  |  | 1D2-D89E (ED) (antibody, IgG1, V domains shown, also called ID2-D89E (ED); ED mutant) VH: QVQLVQSGAEVKKPGASVKVSCEASGYTFTDKYLHWVRQAPGQGLEWMAWINPKSGGTFYAQNFKGRVTVTRDTSINTAYLELTSLRLEDTSTYYCARGRDYYDQGAADLWGQGTMVTVSS VL: DIQLTQSPSSLSASVGDRVTITCRASQGINSVLAWYQQKPGKAPKLLLYAASKLESGVPSRFSGSGSGTDYTLTISSLQPEDFGTYYCQQYYSPVRTFGQGTKVEIKR | IC50, inhibition of rhGM-CSF induced CCL17 secretion from PBMCs (recombinant human GM-CSF [7]): 54.3 pM
7 | 5.23e+08 M⁻¹ | 1.91 nM | 0.00197 s⁻¹ | 1.03e+06 M⁻¹ s⁻¹ | 0.929 nM |  |  |  |  |  |  |  | 0.746 pM | 0.0222 nM | 6.62e-09 M | 1.5 nM | 1D2 SDR mutant K54G/V32R (antibody, IgG1, V domains shown, also called 54G/32R) VH: QVQLVQSGAEVKKPGASVKVSCEASGYTFTDKYLHWVRQAPGQGLEWMAWINPGSGGTFYAQNFKGRVTVTRDTSINTAYLELTSLRLDDTSTYYCARGRDYYDQGAADLWGQGTMVTVSS VL: DIQLTQSPSSLSASVGDRVTITCRASQGINSRLAWYQQKPGKAPKLLLYAASKLESGVPSRFSGSGSGTDYTLTISSLQPEDFGTYYCQQYYSPVRTFGQGTKVEIKR | 
8 |  |  |  |  |  |  |  |  |  |  |  |  |  |  |  |  | AMG203 (namilumab) (antibody, INN chains, looked up, human IgG1, V domains shown, IgG1 kappa) VH: QVQLVQSGAEVKKPGASVKVSCKAFGYPFTDYLLHWVRQAPGQGLEWVGWLNPYSGDTNYAQKFQGRVTMTRDTSISTAYMELSRLRSDDTAVYYCTRTTLISVYFDYWGQGTMVTVSS VL: DIQMTQSPSSVSASVGDRVTIACRASQNIRNILNWYQQRPGKAPQLLIYAASNLQSGVPSRFSGSGSGTDFTLTINSLQPEDFATYYCQQSYSMPRTFGGGTKLEIK | Mean Fluorescence Intensity of phospho-STAT5 (pY694) in human PBMCs stimulated with 10 ng/mL rhIL-3, 2 ug/mL antibody (no antibody: 102) [1]: 104 MFI; Mean Fluorescence Intensity of phospho-STAT5 (pY694) in human PBMCs stimulated with 10 ng/mL rhGM-CSF, 2 ug/mL antibody (no antibody: 122.0) [16]: 42.6 MFI; EC50 (read off the curve) (rhesus GM-CSF (rhesus)): 50 pM; EC50 (read off the curve) [17]: 50 pM; Kd [18]: 0.62 nM; koff [18]: 4.77e-05 s⁻¹; kon [18]: 296000 M⁻¹ s⁻¹
